For one substance, stoichiometry N results are on record in PMC2248197.

The target of this test is Xop411 p09, major capsid subunit (major coat protein) (Xanthomonas oryzae phage Xop411). The test can be described thus: SDS-PAGE of virion proteins with LC-MS/MS of the bands.

Where “and” joins values, the source holds several entries; their conditions need not be identical. Identical values can stand only once.

Turning to “Xop411 p09, major capsid subunit (major coat protein) (natural protein)”, the stoichiometry N is 2 subunits and 6 subunits.
